Measurements published in paper PMC3212568.

Molecular target: β2m lacking the N-terminal six residues of the mature protein (human)
Test: SEC; analytical size exclusion chromatography of 1 mg/ml protein in phosphate buffered saline pH 7.3 at 25°C; monomer and dimer peaks

percent dimeric: 4%
Substance: β2m lacking the N-terminal six residues of the mature protein (domain or fragment)
